The target in this data set is T1, TRBP WT (nonphosphorylated) (UniProt Q15633 1-366).
T1 sequence: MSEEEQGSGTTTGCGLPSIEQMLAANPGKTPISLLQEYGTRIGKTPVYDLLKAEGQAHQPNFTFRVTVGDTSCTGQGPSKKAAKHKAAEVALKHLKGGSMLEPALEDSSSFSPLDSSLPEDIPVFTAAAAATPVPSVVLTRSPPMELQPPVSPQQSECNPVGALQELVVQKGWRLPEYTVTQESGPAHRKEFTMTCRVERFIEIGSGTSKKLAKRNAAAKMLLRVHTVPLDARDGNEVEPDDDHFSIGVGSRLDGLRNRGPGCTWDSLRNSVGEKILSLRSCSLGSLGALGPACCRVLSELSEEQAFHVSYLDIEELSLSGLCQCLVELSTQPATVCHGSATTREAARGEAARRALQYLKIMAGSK
As to the kind of experiment: EMSA; 20 mM HEPES pH 7.5, 150 mM NaCl, 1.5 mM MgCl2, 2 mM DTT, 30 C, 30 min; dsRNA 60 nM, TRBP 0-400 pmol; 5% acrylamide gel. The conditions noted are these: protein: recombinant; label: none (SYBR Gold stain); blunt.

B1: TMEV 45-mer dsRNA (dsRNA)
RNA 1: UUACUAUUGACACUAUGGCUUGCAAACAUGGAUACCCAGAUGUGU
RNA 2: ACACAUCUGGGUAUCCAUGUUUGCAAGCCAUAGUGUCAAUAGUAA
On to B1, for which the binding result is recorded as “binds”.

(Values after article PMC10170298, “Differential regulation of ATP hydrolysis of RIG-I-like receptors by transactivation response RNA-binding protein”.)
